The values that follow are results of earlier work, collected in paper PMC2996873.

For the series, the target named is RANTES (Homo sapiens) (UniProt P13501).
Sequence of UniProt P13501 (P13501 27-91): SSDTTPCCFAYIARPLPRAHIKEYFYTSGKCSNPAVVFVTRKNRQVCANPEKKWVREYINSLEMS

CCR1 (from UniProt P32246): the Kd is 460 nM.

Usually Kd stands for the free concentration of one partner at which half of the binding sites on the other are occupied at equilibrium, for simple one-to-one binding.
